Here are results for one molecule from patent US20170260274A1.

For test [1], the target named is epidermal growth factor receptor (EGFR) (human), P00533. Nature of the test: cell-based or functional assay.
The target is the same in test [2]. Kind of test: flow cytometry, equilibrium binding on EGFR-expressing A431 cells (apparent KD). A general note: Flow cytometry measures light scatter and fluorescence of single cells or particles in a stream.

B1: Ranpirnase-DEN-scFv (protein)
chain: QDWLTFQKKHITNTRDVDCDNIMSTNLFHCKDKNTFIYSRPEPVKAICKGIIASKNVLTTSEFYLSDCNVTSRPCKYKLKKSTNKFCVTCENQAPVHFVGVGSCMVDRGWGNGCGLFGKGGIVEVQLVESGGGLVQPGGSLRLSCAASGFSLTNYGVHWVRQAPGKGLEWLGVIWSGGNTDYNTPFTSRFTISRDNSKNTLYLQMNSLRAEDTAVYYCARALTYYDYEFAYWGQGTTVTVSSGGGGSGGGGSGGGGSDIQLTQSPSFLSASVGDRVTITCRASQSIGTNIHWYQQKPGKAPKLLIKYASESISGVPSRFSGSGSGTEFTLTISSLQPEDFATYYCQQNNNWPTTFGAGTKLEIKR
modifications: not checked
In test [1], B1 showed an IC50 (nM), cell viability, A431 of 38 nM; an IC50 (nM), cell viability, HNO97 of 411 nM; an IC50 (nM), cell viability, HNO211 of 18 nM; an IC50 (nM), cell viability, HNO410 of 308 nM. The fold increase in potency compared to Ranpirnase-GS-scFv, HNO211 cells in test [1] stood at 79 fold. The Kd in test [2] was determined as 11.2 nM.
